Experimental data: patent US20250145673A1 (AFFILOGIC, published 2025)
Where two headings read alike, the source gives them in different places.

Tests used:
[1] = target: human serum albumin (HSA) (human, UniProt P02768 25-609); experiment: SPR, HSA amine-coupled to chip, single cycle kinetics, 1:1 Langmuir fit
Method: C3, VEGF, and HSA were placed onto Spots B, C, and D, respectively, across all 8 channels to test for the binding of the supplied analytes. Spot A was used as a reference spot. The conditioned biosensor chip was chemically activated with EDC/NHS. Ligands were then injected onto the activated surface to allow for immobilization. After immobilization, 1 M ethanolamine was injected to block any remaining reactive carboxyl groups in the carboxymethylated dextran surface.
(§1) In summary, ligands were immobilized under the following conditions: 25° C. on a Sierra Sensors HCA (CM5), Running Buffer of PBST (10 mM Phosphate Buffer pH 7.4, 150 mM NaCl, 0.05% Tween-20; pH 7.4), amine coupling Immobilization Buffer of 10 mM NaOAc pH 5.0, activation with EDC/NHS 7 minutes, immobilization for 2 minutes, and blocking with 1 M ethanolamine for 7 minutes.
(§2) An 8-point, 3-fold serial dilution assay was performed in duplicate for the Fab fusion proteins described in Example 8 starting at 100 nM. Sensorgrams were analyzed using Sierra Sensors Analyzer with a double reference to determine the interaction parameters ka, kd, and KD. The reference channel was first subtracted from the ligand channel as the first reference. The internal blank injections were set to closest blank after injection based on the method. The kd was calculated for the top concentration by fitting the off-rate part of the curve. The kd was then set to global constant for fitting rest of the curves. Rmax was fit locally for each individual curve since the number of available binding sites changed after each injection. Binding data was fit to a 1:1 Langmuir model.

[2] = target: T1, complement component 3 (C3) (UniProt P01024 23-1663); experiment: SPR, single cycle kinetics, 1:1 Langmuir fit; text says C3 (Cat #A113c) was immobilised, the column's head prints 'Binding to C3b'
T1 construct: Purified bought protein; native C3 is a disulfide-linked two-chain protein made from one precursor
T1 sequence (P01024 23-1663 limits assumed): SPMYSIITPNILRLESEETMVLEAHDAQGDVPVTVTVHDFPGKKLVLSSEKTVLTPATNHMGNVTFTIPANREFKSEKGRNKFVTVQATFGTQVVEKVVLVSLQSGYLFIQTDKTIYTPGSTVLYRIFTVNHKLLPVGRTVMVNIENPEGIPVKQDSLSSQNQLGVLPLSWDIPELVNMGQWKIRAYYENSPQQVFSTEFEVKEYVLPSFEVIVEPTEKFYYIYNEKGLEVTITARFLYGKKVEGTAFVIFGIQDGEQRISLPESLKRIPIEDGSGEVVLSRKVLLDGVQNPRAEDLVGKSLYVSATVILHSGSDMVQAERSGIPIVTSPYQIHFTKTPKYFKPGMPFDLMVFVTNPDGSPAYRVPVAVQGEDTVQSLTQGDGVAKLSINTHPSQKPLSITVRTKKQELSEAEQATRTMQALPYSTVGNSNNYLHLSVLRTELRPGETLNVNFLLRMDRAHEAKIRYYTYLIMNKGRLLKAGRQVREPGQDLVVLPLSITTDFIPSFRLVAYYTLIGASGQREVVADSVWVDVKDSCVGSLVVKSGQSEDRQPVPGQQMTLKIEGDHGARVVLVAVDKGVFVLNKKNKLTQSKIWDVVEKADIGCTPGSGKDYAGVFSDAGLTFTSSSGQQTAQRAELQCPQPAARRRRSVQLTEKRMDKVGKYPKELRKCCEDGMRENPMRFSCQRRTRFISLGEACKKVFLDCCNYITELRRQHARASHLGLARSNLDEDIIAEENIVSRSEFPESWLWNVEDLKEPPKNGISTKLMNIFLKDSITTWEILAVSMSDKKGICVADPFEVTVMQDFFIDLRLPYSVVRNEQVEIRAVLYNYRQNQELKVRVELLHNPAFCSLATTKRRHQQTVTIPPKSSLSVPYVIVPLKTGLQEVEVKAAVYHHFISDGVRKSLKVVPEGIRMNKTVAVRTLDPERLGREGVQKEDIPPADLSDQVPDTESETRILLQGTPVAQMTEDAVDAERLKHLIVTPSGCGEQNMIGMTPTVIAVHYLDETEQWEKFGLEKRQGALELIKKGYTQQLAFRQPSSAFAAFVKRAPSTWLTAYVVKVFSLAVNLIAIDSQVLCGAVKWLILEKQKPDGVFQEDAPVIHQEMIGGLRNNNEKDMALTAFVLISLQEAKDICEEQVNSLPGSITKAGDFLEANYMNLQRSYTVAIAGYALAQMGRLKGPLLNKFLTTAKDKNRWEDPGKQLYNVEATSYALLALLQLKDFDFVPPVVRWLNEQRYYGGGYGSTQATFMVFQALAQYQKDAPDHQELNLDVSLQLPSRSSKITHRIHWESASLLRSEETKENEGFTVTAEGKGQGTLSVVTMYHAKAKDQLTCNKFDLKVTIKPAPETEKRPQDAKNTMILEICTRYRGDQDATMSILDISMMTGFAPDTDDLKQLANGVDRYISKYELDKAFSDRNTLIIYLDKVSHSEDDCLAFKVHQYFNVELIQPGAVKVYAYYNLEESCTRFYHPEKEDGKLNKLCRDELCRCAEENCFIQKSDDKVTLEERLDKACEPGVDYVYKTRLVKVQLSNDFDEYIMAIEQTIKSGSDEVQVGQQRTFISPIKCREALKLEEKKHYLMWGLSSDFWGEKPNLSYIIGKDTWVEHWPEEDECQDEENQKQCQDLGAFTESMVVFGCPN
Method: C3 binding, VEGF binding, HSA binding, and equilibrium dissociation constant (KD) measurements were determined by Surface Plasmon Resonance (SPR) using the Sierra SPR-23 instrument. C3 protein was obtained from Complement Technology, Inc. (Cat #A113c). VEGF protein was obtained from Sino Biologicals, Inc. HSA protein was obtained from Sigma-Aldrich, Inc. (Cat #A3782). The Fab fusion proteins described in Example 8 were stored each at 1 mg/mL in PBST, pH 7.4.
as §1, §2

[3] = target: T1, complement component 3 (C3); experiment: cell-based or functional assay
[4] = target: T1, complement component 3 (C3); experiment: cell-based or functional assay; remark: listed apart in the source
[5] = target: T1, complement component 3 (C3); experiment: ITC, binder titrated into target
[6] = target: T1, complement component 3 (C3); experiment: ITC; ITC, not SPR
[7] = target: T1, complement component 3 (C3); experiment: SPR, target amine-coupled to chip, single cycle kinetics, 1:1 Langmuir fit
Method: as §1, with “pH 4.0,” for “pH 5.0,”, “EDC/NHS 6” for “EDC/NHS 7”, “for 1 minute,” for “for 2 minutes,”, “M ethanolamine.” for “M ethanolamine for 7 minutes.”
An 8-point, 3-fold serial dilution assay was performed in duplicate for the polypeptides described in Example 1 starting at either 20 nM, 50 nM, or 200 nM.
as §2, with “Sensorgrams” for “An 8-point, 3-fold serial dilution assay was performed in duplicate for the Fab fusion proteins described in Example 8 starting at 100 nM. Sensorgrams”, “Analyzer software version 3.1.33” for “Analyzer”

[8] = target: T1, complement component 3 (C3); experiment: ITC, polypeptide titrated into C3; fit box in the lower panel
[9] = target: T1, complement component 3 (C3); experiment: as above; remark: listed apart in the source
[10] = target: T1, complement component 3 (C3); experiment: ITC

Chain of human serum albumin (HSA) (P02768 25-609 limits assumed): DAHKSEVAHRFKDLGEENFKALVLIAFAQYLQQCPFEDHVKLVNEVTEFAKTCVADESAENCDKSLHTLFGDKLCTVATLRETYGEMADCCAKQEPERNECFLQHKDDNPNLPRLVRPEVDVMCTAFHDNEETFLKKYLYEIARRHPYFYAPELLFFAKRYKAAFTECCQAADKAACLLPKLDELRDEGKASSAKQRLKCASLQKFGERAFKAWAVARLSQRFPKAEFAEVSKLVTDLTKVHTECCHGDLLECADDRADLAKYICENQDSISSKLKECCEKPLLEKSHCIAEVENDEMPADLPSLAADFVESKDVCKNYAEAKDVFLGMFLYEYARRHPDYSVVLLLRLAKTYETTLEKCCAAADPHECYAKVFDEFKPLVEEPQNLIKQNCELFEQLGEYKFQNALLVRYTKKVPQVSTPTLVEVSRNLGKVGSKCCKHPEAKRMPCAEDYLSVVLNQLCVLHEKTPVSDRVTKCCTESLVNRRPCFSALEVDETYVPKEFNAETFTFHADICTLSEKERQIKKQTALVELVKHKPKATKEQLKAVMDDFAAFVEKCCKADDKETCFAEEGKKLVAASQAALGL

Row | Kd [1] | Kd [2] | IC50 (nM) Alternative Pathway (Wieslab® assay) [3] | IC50 (nM) Classical Pathway (Wieslab® assay) [3] | IC50 (nM) Alternative (ELISA-based complement activation assay) [4] | IC50 (nM) Classical (ELISA-based complement activation assay) [4] | -TΔS [5] | Kd [5] | N [5] | ΔG [5] | ΔH [5] | Kd [6] | Kd [7] | Ka [8] | Ka [9] | Kd [10] | Binder
1 | 16.9 nM | 0.21 nM | – | – | – | – | – | – | – | – | – | – | – | – | – | – | Fab NF-G (Fab fusion protein comprising SEQ ID NO: 61 and SEQ ID NO: 60) (other) heavy: EVQLVESGGGLVQPGGSLRLSCAASGYDFTHYGMNWVRQAPGKGLEWVGWINTYTGEPTYAADFKRRFTFSLDTSKSTAYLQMNSLRAEDTAVYYCAKYPYYYGTSHWYFDVWGQGTLVTVSSASTKGPSVFPLAPSSKSTSGGTAALGCLVKDYFPEPVTVSWNSGALTSGVHTFPAVLQSSGLYSLSSVVTVPSSSLGTQTYICNVNHKPSNTKVDKKVEPKSCDKTHLGSGGSGSAGSGSGGSVKVKFDATGEEKEVETSKISAVYRTGKDVLFSYDDQGKIGWGYVSEKDAPKELLDLLARAEREKGSGGSGSAGSGSGGSVKVKFVFSGEEKEVETSKIKWVLRWGKAVGFKYDDQGKIGYGFVAEKDAPKELLDLLARAERE light: not shown
2 | 3 nM | 1.31 nM | 246 nM | 65 nM | – | – | – | – | – | – | – | – | – | – | – | – | Fab NF-E (Fab fusion protein comprising SEQ ID NO: 59 and SEQ ID NO: 57) (other, Signal peptide cleaved off prior to secretion) heavy: EVQLVESGGGLVQPGGSLRLSCAASGYDFTHYGMNWVRQAPGKGLEWVGWINTYTGEPTYAADFKRRFTFSLDTSKSTAYLQMNSLRAEDTAVYYCAKYPYYYGTSHWYFDVWGQGTLVTVSSASTKGPSVFPLAPSSKSTSGGTAALGCLVKDYFPEPVTVSWNSGALTSGVHTFPAVLQSSGLYSLSSVVTVPSSSLGTQTYICNVNHKPSNTKVDKKVEPKSCDKTHLGSGGSGSAGSGSGGSVKVKFVFSGEEKEVETSKIKWVLRWGKAVGFKYDDQGKIGYGFVAEKDAPKELLDLLARAERE light: not shown
3 | – | – | – | – | 700 nM | 743 nM | 23.4 kcal/mol | 2.1 nM | 0.98 | -11.8 kcal/mol | -35.2 kcal/mol | 2.1 nM | 1.94 nM | 4.74e+08 M⁻¹ | – | – | polypeptide having the amino acid sequence of SEQ ID NO: 27 (designed binder, Sac7d variant (Nanofitin); also called parental clone of cluster 6; Nanofitin) MVKVKFEATGEEKEVDTSKIYQVYRSGKEVLFTYDDNGKTGWGYVSEKDAPKELLDMLARAEREK
4 | 90.6 nM | 4.09 nM | 273 nM | 78 nM | – | – | – | – | – | – | – | – | – | – | – | – | Fab NF-F (Fab fusion protein comprising SEQ ID NO: 63 and SEQ ID NO: 35) (other) heavy: EVQLVESGGGLVQPGGSLRLSCAASGYDFTHYGMNWVRQAPGKGLEWVGWINTYTGEPTYAADFKRRFTFSLDTSKSTAYLQMNSLRAEDTAVYYCAKYPYYYGTSHWYFDVWGQGTLVTVSSASTKGPSVFPLAPSSKSTSGGTAALGCLVKDYFPEPVTVSWNSGALTSGVHTFPAVLQSSGLYSLSSVVTVPSSSLGTQTYICNVNHKPSNTKVDKKVEPKSCDKTHLGSGGSGSAGSGSGGSVKVKFVFSGEEKEVETSKIKWVLRWGKAVGFKYDDQGKIGYGFVAEKDAPKELLDLLARAEREKGSGGSGSAGSGSGGSVKVKFDATGEEKEVETSKISAVYRTGKDVLFSYDDQGKIGWGYVSEKDAPKELLDLLARAERE light: not shown
5 | 0.1 nM | 0.13 nM | 123 nM | 47 nM | – | – | – | – | – | – | – | – | – | – | – | – | Fab NF-H (Fab fusion protein comprising SEQ ID NO: 63 and SEQ ID NO: 62) (other) heavy: EVQLVESGGGLVQPGGSLRLSCAASGYDFTHYGMNWVRQAPGKGLEWVGWINTYTGEPTYAADFKRRFTFSLDTSKSTAYLQMNSLRAEDTAVYYCAKYPYYYGTSHWYFDVWGQGTLVTVSSASTKGPSVFPLAPSSKSTSGGTAALGCLVKDYFPEPVTVSWNSGALTSGVHTFPAVLQSSGLYSLSSVVTVPSSSLGTQTYICNVNHKPSNTKVDKKVEPKSCDKTHLGSGGSGSAGSGSGGSVKVKFVFSGEEKEVETSKIKWVLRWGKAVGFKYDDQGKIGYGFVAEKDAPKELLDLLARAEREKGSGGSGSAGSGSGGSVKVKFDATGEEKEVETSKISAVYRTGKDVLFSYDDQGKIGWGYVSEKDAPKELLDLLARAERE light: not shown
6 | – | – | – | – | 447 nM | 63 nM | 6.6 kcal/mol | 1.9 nM | 0.94 | -11.9 kcal/mol | -18.5 kcal/mol | – | 0.22 nM | – | 5.36e+08 M⁻¹ | 1.9 nM | polypeptide comprising the amino acid sequence of SEQ ID NO: 33 (designed binder) MVKVKFAATGEEKEVETSKIANVYRVGKDVLFSYDDQGKIGWGYVSEKDAPKELLDLLARAEREK
7 | – | – | – | – | 286 nM | 79 nM | 16.7 kcal/mol | 1.3 nM | 0.85 | -12.1 kcal/mol | -28.8 kcal/mol | – | 0.66 nM | – | – | 1.3 nM | polypeptide comprising the amino acid sequence of SEQ ID NO: 34 (designed binder) MVKVKFDATGEEKEVETSKISAVYRTGKDVLFSYDDQGKIGWGYVSEKDAPKELLDLLARAEREK
8 | 8.9 nM | 1.42 nM | 170 nM | 63 nM | – | – | – | – | – | – | – | – | – | – | – | – | Fab NF-I (Fab fusion protein comprising SEQ ID NO: 36 and SEQ ID NO: 60) (other) heavy: EVQLVESGGGLVQPGGSLRLSCAASGYDFTHYGMNWVRQAPGKGLEWVGWINTYTGEPTYAADFKRRFTFSLDTSKSTAYLQMNSLRAEDTAVYYCAKYPYYYGTSHWYFDVWGQGTLVTVSSASTKGPSVFPLAPSSKSTSGGTAALGCLVKDYFPEPVTVSWNSGALTSGVHTFPAVLQSSGLYSLSSVVTVPSSSLGTQTYICNVNHKPSNTKVDKKVEPKSCDKTHL light: not shown
9 | 16.9 nM | 0.14 nM | 121 nM | 48 nM | – | – | – | – | – | – | – | – | – | – | – | – | Fab NF-J (Fab fusion protein comprising SEQ ID NO: 58 and SEQ ID NO: 62) (other) heavy: EVQLVESGGGLVQPGGSLRLSCAASGYDFTHYGMNWVRQAPGKGLEWVGWINTYTGEPTYAADFKRRFTFSLDTSKSTAYLQMNSLRAEDTAVYYCAKYPYYYGTSHWYFDVWGQGTLVTVSSASTKGPSVFPLAPSSKSTSGGTAALGCLVKDYFPEPVTVSWNSGALTSGVHTFPAVLQSSGLYSLSSVVTVPSSSLGTQTYICNVNHKPSNTKVDKKVEPKSCDKTHLGSGGSGSAGSGSGGSVKVKFDATGEEKEVETSKISAVYRTGKDVLFSYDDQGKIGWGYVSEKDAPKELLDLLARAERE light: not shown
